The labels stand for the following.
B1: Phage-781 (peptide)
peptide: YCEGHSPLYMSKCL
notes: not shown: fused to the pIII filament protein of the bacteriophage
B2: Phage-780 (peptide)
peptide: YCDGHLPEYMRKCL
notes: as for B1
B3: Phage-776 (peptide)
peptide: YCDGHSWEYIQKCL
notes: Position 10 is printed as '--' and was read as unchanged (I); not shown: fused to the pIII filament protein of the bacteriophage
B4: Phage-783 (peptide)
peptide: YCDGHSALYMSKCL
notes: as for B1
B5: Phage-779 (peptide)
peptide: YCEGHLPEYMMKCL
notes: as for B1
B6: Phage-775 (peptide)
peptide: YCEGHMSEYMAKCL
notes: as for B1
B7: Phage-786 (peptide)
peptide: YCEGHRSEYMAKCL
notes: as for B1
B8: Phage-777 (peptide)
peptide: YCEGHSLEYMAKCL
notes: as for B1
B9: Phage-778 (peptide)
peptide: YCEGHSYEYMWKCL
notes: as for B1
B10: Phage-782 (peptide)
peptide: YCEGHSWEYIGKCL
notes: as for B1

The first assay addresses T1, Anti-CD28 Fab (SEQ ID NOs: 696, 697).
T1 construct: The Fab was biotinylated and captured on neutravidin coated plates in the phage ELISA
The experiment in a line: phage binding ELISA on anti-CD28 Fab plate; competitor: CD28 antigen pre-incubated in the wells. (ELISA stands for enzyme-linked immunosorbent assay.)
T1 sequence (VH, as listed by the source, chain 1 of 2): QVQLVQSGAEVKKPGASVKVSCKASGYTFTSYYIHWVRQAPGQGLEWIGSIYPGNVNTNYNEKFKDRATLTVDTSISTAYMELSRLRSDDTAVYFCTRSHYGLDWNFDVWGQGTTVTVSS
T1 sequence (VL, as listed by the source, chain 2 of 2): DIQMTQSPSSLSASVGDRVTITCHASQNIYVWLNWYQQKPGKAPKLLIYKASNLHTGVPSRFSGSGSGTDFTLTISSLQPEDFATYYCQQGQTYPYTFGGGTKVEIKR
Description: (§1) After panning, phage infected bacteria were plated out and colonies picked into 96 well blocks. Clonal phage was then amplified and separated from bacterial cells via centrifugation.
(§2) Clonal phage were harvested as crude supematants and screened via standard ELISAs. […] Prior to the addition of clonal phage, wells were incubated with blocking buffer and CD28 antigen or blocking buffer alone. Without washing or aspirating, clonal phage supematants were then added to the wells and incubated for a short time. Wells were then washed followed by detection of bound phage using a horse radish conjugated anti-M13 antibody. Clonal phage of interest were then sent for sequence analysis.
Take YCDGHEPQYLEKCL (Tested as clonal phage supernatant) [Phage-758]: the “Anti-CD28 Fab signal in the presence of CD28” value is 0.08.
In the case of YCDGHSQEYMWKCL (Tested as clonal phage supernatant) [Phage-755], the “Anti-CD28 Fab signal in the presence of CD28” value stood at 0.09.
On the same count and under the same terms, with YCDGHLDIYLAKCL (Tested as clonal phage supernatant) [Phage-753] the figure was 0.08; with YCDGHSKEYMHKCL (Tested as clonal phage supernatant) [Phage-757], 0.07.
For the molecule YCDGHAEEYMSKCL (Tested as clonal phage supernatant) [Phage-759], the “Anti-CD28 Fab signal in the presence of CD28” value amounted to 0.09.
Turning to YCAGHLEEYMDKCL (Tested as clonal phage supernatant) [Phage-761], the “Anti-CD28 Fab signal in the presence of CD28” value is 0.06.
On the same count and under the same terms, with YCDGHVEEYLYKCL (Tested as clonal phage supernatant) [Phage-760] the figure was 0.06; with YCDGHAPEYMKKCL (Tested as clonal phage supernatant) [Phage-756], 0.06; with YCEGHSEEYMSKCL (Tested as clonal phage supernatant) [Phage-754], 0.07.

Another assay has as its target T2, Anti-CD28 Fab (SEQ ID NOs: 696, 697).
T2 construct: Biotinylated Fab captured on neutravidin coated plates in the phage ELISA
The assay is described as follows: phage ELISA on captured anti-CD28 Fab; competitor CD28 antigen pre-incubated in the wells.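 Also: clonal phage supernatants added to wells preloaded with CD28 antigen in blocking buffer, control wells buffer only, bound phage read via HRP-linked anti-M13 antibody.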
T2 sequence (VH, as listed by the source, chain 1 of 2): as the sequence (VH, as listed by the source, chain 1 of 2) above
T2 sequence (VL, as listed by the source, chain 2 of 2): as the sequence (VL, as listed by the source, chain 2 of 2) above
As to B1, the “Anti-CD28 Fab signal in the presence of CD28 (phage binding ELISA)” value worked out at 0.09.
On the same count and under the same terms, to B2 belongs 0.08; to B3, 0.07; to B4, 0.08.
Take B5: the “Anti-CD28 Fab signal in the presence of CD28 (phage binding ELISA)” value came to 0.27.
Take B6: the “Anti-CD28 Fab signal in the presence of CD28 (phage binding ELISA)” value worked out at 0.11.
Still for that read-out and setting: with B7 the figure was 0.06; with B8, 0.08; with B9, 0.08.
Turning to B10, the “Anti-CD28 Fab signal in the presence of CD28 (phage binding ELISA)” value was 0.07.

The target of another assay is T1, Anti-CD28 Fab (SEQ ID NOs: 696, 697). The experiment in a line: phage binding ELISA; biotinylated anti-CD28 Fab on neutravidin plate, bound phage detected with anti-M13 HRP.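 Also: crude supernatants of clonal phage screened, wells pretreated with blocking buffer with or without CD28 antigen before brief phage incubation, washed, then bound phage detected.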
Take YCDGHEPQYLEKCL (Tested as clonal phage supernatant) [Phage-758]: the “Anti-CD28 Fab (SEQ ID NOs: 696, 697) signal” value came out at 1.9.
YCDGHSQEYMWKCL (Tested as clonal phage supernatant) [Phage-755]: the “Anti-CD28 Fab (SEQ ID NOs: 696, 697) signal” value amounted to 1.9.
For the molecule YCDGHLDIYLAKCL (Tested as clonal phage supernatant) [Phage-753], the “Anti-CD28 Fab (SEQ ID NOs: 696, 697) signal” value came out at 1.91.
Same read-out and setting: with YCDGHSKEYMHKCL (Tested as clonal phage supernatant) [Phage-757] the figure was 1.9.
Take YCDGHAEEYMSKCL (Tested as clonal phage supernatant) [Phage-759]: the “Anti-CD28 Fab (SEQ ID NOs: 696, 697) signal” value stood at 1.9.
Same read-out and setting: with YCAGHLEEYMDKCL (Tested as clonal phage supernatant) [Phage-761] the figure was 1.9; with YCDGHVEEYLYKCL (Tested as clonal phage supernatant) [Phage-760], 1.9.
For YCDGHAPEYMKKCL (Tested as clonal phage supernatant) [Phage-756], the “Anti-CD28 Fab (SEQ ID NOs: 696, 697) signal” value came out at 1.9.
On the same count and under the same terms, with YCEGHSEEYMSKCL (Tested as clonal phage supernatant) [Phage-754] the figure was 1.91.

For a further assay, the target named is T3, Anti-CD28 Fab (SEQ ID NOs: 696, 697).
T3 construct: In the phage ELISA the Fab was biotinylated and captured on neutravidin coated plates
The assay is described as follows: phage ELISA on anti-CD28 Fab pre-incubated with CD28 antigen as competitor, anti-M13 HRP detection.
T3 sequence (VH, as listed by the source, chain 1 of 2): as the sequence (VH, as listed by the source, chain 1 of 2) above
T3 sequence (VL, as listed by the source, chain 2 of 2): as the sequence (VL, as listed by the source, chain 2 of 2) above
In the case of YCDGHIDEYLQKCL (Tested as clonal phage supernatant) [Phage-772], the “Phage binding ELISA, Anti-CD28 Fab signal in the presence of CD28” value amounted to 0.06.
Turning to YCDGHRPEYMEKCL (Tested as clonal phage supernatant) [Phage-765], the “Phage binding ELISA, Anti-CD28 Fab signal in the presence of CD28” value was found to be 0.06.
Regarding YCEGHLSEYMSKCL (Tested as clonal phage supernatant) [Phage-774], the “Phage binding ELISA, Anti-CD28 Fab signal in the presence of CD28” value is 0.09.
Turning to YCEGHSPEYMWKCL (Tested as clonal phage supernatant) [Phage-771], the “Phage binding ELISA, Anti-CD28 Fab signal in the presence of CD28” value was 0.09.
Same read-out and setting: to YCDGHSPEYMPKCL (Tested as clonal phage supernatant) [Phage-769] belongs 0.08; to YCEGHIPEYMAKCL (Tested as clonal phage supernatant) [Phage-768], 0.06; to YCAGHLPQYIAKCL (Tested as clonal phage supernatant) [Phage-763], 0.09.
Still for that read-out and setting: to YCEGHVAEYMLKCL (Tested as clonal phage supernatant) [Phage-773] belongs 0.05; to YCDGHLPEYMGKCL (Tested as clonal phage supernatant) [Phage-766], 0.11; to YCDGHLAEYMPKCL (Tested as clonal phage supernatant) [Phage-770], 0.07.
In the case of YCEGHLQEYMEKCL (Tested as clonal phage supernatant) [Phage-767], the “Phage binding ELISA, Anti-CD28 Fab signal in the presence of CD28” value amounted to 0.1.
Same read-out and setting: with YCAGHAPQYMEKCL (Tested as clonal phage supernatant) [Phage-762] the figure was 0.08.
Consider YCDGHLKEYMAKCL (Tested as clonal phage supernatant) [Phage-764], for which the “Phage binding ELISA, Anti-CD28 Fab signal in the presence of CD28” value turned out to be 0.07.

The next assay has the same target. The assay is described as follows: phage ELISA; biotinylated anti-CD28 Fab on neutravidin plate, clonal phage supernatant, anti-M13 HRP detection.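 Also: crude supernatants of single phage clones picked after panning were screened for binding.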
Target sequence in this assay (VH, as listed by the source, chain 1 of 2): as the sequence (VH, as listed by the source, chain 1 of 2) above
Target sequence in this assay (VL, as listed by the source, chain 2 of 2): as the sequence (VL, as listed by the source, chain 2 of 2) above
As for YCDGHIDEYLQKCL (Tested as clonal phage supernatant) [Phage-772], the “Phage binding ELISA, Anti-CD28 Fab signal” value came to 1.88.
Regarding YCDGHRPEYMEKCL (Tested as clonal phage supernatant) [Phage-765], the “Phage binding ELISA, Anti-CD28 Fab signal” value turned out to be 1.9.
As to YCEGHLSEYMSKCL (Tested as clonal phage supernatant) [Phage-774], the “Phage binding ELISA, Anti-CD28 Fab signal” value amounted to 1.88.
Turning to YCEGHSPEYMWKCL (Tested as clonal phage supernatant) [Phage-771], the “Phage binding ELISA, Anti-CD28 Fab signal” value was 1.89.
Still for that read-out and setting: with YCDGHSPEYMPKCL (Tested as clonal phage supernatant) [Phage-769] the figure was 1.89.
On the same count and under the same terms, to YCEGHIPEYMAKCL (Tested as clonal phage supernatant) [Phage-768] belongs 1.89.
For YCAGHLPQYIAKCL (Tested as clonal phage supernatant) [Phage-763], the “Phage binding ELISA, Anti-CD28 Fab signal” value was determined as 1.9.
The same measure, in the same setting: to YCEGHVAEYMLKCL (Tested as clonal phage supernatant) [Phage-773] belongs 1.88; to YCDGHLPEYMGKCL (Tested as clonal phage supernatant) [Phage-766], 1.89; to YCDGHLAEYMPKCL (Tested as clonal phage supernatant) [Phage-770], 1.89.
On the same count and under the same terms, with YCEGHLQEYMEKCL (Tested as clonal phage supernatant) [Phage-767] the figure was 1.89; with YCAGHAPQYMEKCL (Tested as clonal phage supernatant) [Phage-762], 1.9; with YCDGHLKEYMAKCL (Tested as clonal phage supernatant) [Phage-764], 1.9.

The target of another assay is T2, Anti-CD28 Fab (SEQ ID NOs: 696, 697). The experiment in a line: phage ELISA; biotinylated anti-CD28 Fab on neutravidin plate, bound phage detected with anti-M13 HRP antibody.
Description: as §1, §2
As for B1, the “Anti-CD28 Fab signal (phage binding ELISA)” value was determined as 1.87.
Same read-out and setting: with B2 the figure was 1.88; with B3, 1.88.
On the same count and under the same terms, with B4 the figure was 1.87.
As for B5, the “Anti-CD28 Fab signal (phage binding ELISA)” value came to 1.88.
The same measure, in the same setting: to B6 belongs 1.88.
The same measure, in the same setting: to B7 belongs 1.86; to B8, 1.88; to B9, 1.88.
In the case of B10, the “Anti-CD28 Fab signal (phage binding ELISA)” value stood at 1.87.
